No end group written: not given here.
Assays:
[1] = biological target: T1, synthetic Aβ1-42 (aggregated in the ELISAs) (human, UniProt P05067 672-713); assay: Aβ 1-42 binding ELISA
T1 construct: range 672-713; also called aggregated Aβ1-42; aggregated synthetic Aβ1-42

[2] = biological target: T2, biotinylated DAE peptide (immobilized Aβ peptide) (human, UniProt P05067 672-681, limits assumed, also: biotinylated, site not given here); assay: BIAcore (SPR), biotinylated DAE peptide on streptavidin chip, antibody in solution; bivalent model, global analysis
T2 construct: domain: Aβ peptide (bio-DAE peptide; bio-DAE10); Immobilized on streptavidin biosensor chips for BIAcore; also called bio-DAE peptide; bio-DAE10
T2 peptide (looked up): DAEFRHDSGY

[3] = biological target: T1, synthetic Aβ1-42 (aggregated in the …); assay: competitive Aβ1-42 ELISA; competitor: biotin conjugated m12A11Cγ2a at a fixed concentration
[4] = biological target: T1, synthetic Aβ1-42 (aggregated in the …); assay: competitive Aβ1-42 ELISA, competitor biotin conjugated m12A11Cγ2a (FIG. 12)

B1: humanized 3D6 (antibody, V domains shown)
VH: EVQLVESGGGLVQPGGSLRLSCAGSGFTFSNYGMSWVRQAPGKGLEWVASIRSGGGRTYYSDNVKGRFTISRENAKNSLYLQMNSLRAEDTAVYYCVRYDHYSGSSDYWGQGTLVTVSS
VL: DVVMTQSPLSLPVTLGQPASISCKSSQSLLDSDGKTYLNWLQQRPGQSPRRLIYLVSKLDSGVPDRFSGSGSGTDFTLKISRVEAEDVGVYYCWQGTHFPRTFGGGTKVEIKR
EC50 (read off the curve) [1]: ~0.04 µg/mL

B2: humanized 12A11 version 1 (antibody, V domains shown)
VH: QVQLVESGGGVVQPGRSLRLSCAFSGFSLSTSGMSVGWIRQAPGKGLEWLAHIWWDDDKYYNPSLKSRLTISKDTSKNTVYLQMNSLRAEDTAVYYCARRTTTADYFAYWGQGTTVTVSS
VL: DVVMTQSPLSLPVTPGEPASISCRSSQSIVHSNGNTYLEWYLQKPGQSPQLLIYKVSNRFSGVPDRFSGSGSGTDFTLKISRVEAEDVGVYYCFQSSHVPLTFGQGTKLEIK
notes: Variable domains only; also called h12A11v1; 12A11v1
Ka [2]: 4.29e+07 M⁻¹ | Kd [2]: 23.3 nM | koff [2]: 0.00343 s⁻¹ | kon [2]: 147000 M⁻¹ s⁻¹ | IC50 (read off the curve) [3]: ~1 µg/mL | IC50 fold against murine and chimeric 12A11 [4]: ≤ 2 fold

Source: patent US20060198851A1 (Janssen / Centocor, published 2006)
